Laboratory results: US20260266848A1, “COMPOSITIONS AND METHODS FOR DIAGNOSING AND TREATING DYSTONIA” (Duke University, priority 2023, published 2026)

B1: Stxbp2 (protein, UniProt Q64324 1-593, looked up)
Syntaxin-binding protein 2: MAPLGLKAVVGEKILSGVIRSVKKDGEWKVLIMDHPSMRILSSCCKMSDILAEGITIVEDINKRREPIPSLEAIYLLSPTEKSVQALIADFQGTPTFTYKAAHIFFTDTCPEPLFSELGRSRLAKAVKTLKEIHLAFLPYEAQVFSLDAPHSTYNLYCPFRAGERGRQLDALAQQIATLCATLQEYPSIRYRKGPEDTAQLAHAVLAKLNAFKADTPSLGEGPEKTRSQLLIMDRAADPVSPLLHELTFQAMAYDLLDIEQDTYRYETTGLSESREKAVLLDEDDDLWVELRHMHIADVSKKVTELLKTFCESKRLTTDKANIKDLSHILKKMPQYQKELNKYSTHLHLADDCMKHFKGSVEKLCSVEQDLAMGSDAEGEKIKDAMKLIVPVLLDASVPPYDKIRVLLLYILLRNGVSEENLAKLIQHANVQSYSSLIRNLEQLGGTVTNSAGSGTSSRLERRERMEPTYQLSRWSPVIKDVMEDVVEDRLDRKLWPFVSDPAPVPSSQAAVSARFGHWHKNKAGVEARAGPRLIVYIVGGVAMSEMRAAYEVTRATEGKWEVLIGSSHILTPTRFLDDLKTLDQKLEGVALP
B2: Fh (protein, UniProt P97807 42-507, looked up)
Fumarate hydratase, …: ASQNSFRVEFDTFGELKVPTDKYYGAQTVRSTMNFKIGGATERMPIPVIQAFGILKRAAAEVNQEYGLDPKIASAIMKAADEVAEGKLNDHFPLVVWQTGSGTQTNMNVNEVISNRAIEMLGGELGSKKPVHPNDHVNKSQSSNDTFPTAMHIAAAVEVHKVLLPGLQKLHDALSAKSKEFAQVIKIGRTHTQDAVPLTLGQEFSGYVQQVQYAMVRIKAAMPRIYELAAGGTAVGTGLNTRIGFAEKVAAKVAALTGLPFVTAPNKFEALAAHDALVELSGAMNTAACSLMKIANDIRFLGSGPRSGLGELILPENEPGSSIMPGKVNPTQCEAMTMVAAQVMGNHVAVTVGGSNGHFELNVFKPMMIKNVLHSARLLGDASVSFTDNCVVGIQANTERINKLMNESLMLVTALNPHIGYDKAAKIAKTAHKNGSTLKETAIELGYLTAEQFDEWVKPKDMLGPK
B3: Psmd4 (protein, UniProt O35226 1-376, looked up)
26S proteasome non-ATPase …: MVLESTMVCVDNSEYMRNGDFLPTRLQAQQDAVNIVCHSKTRSNPENNVGLITLANDCEVLTTLTPDTGRILSKLHTVQPKGKITFCTGIRVAHLALKHRQGKNHKMRIIAFVGSPVEDNEKDLVKLAKRLKKEKVNVDIINFGEEEVNTEKLTAFVNTLNGKDGTGSHLVTVPPGPSLADALISSPILAGEGGAMLGLGASDFEFGVDPSADPELALALRVSMEEQRQRQEEEARRAAAASAAEAGIATPGTEDSDDALLKMTINQQEFGRPGLPDLSSMTEEEQIAYAMQMSLQGTEFSQESADMDASSAMDTSDPVKEEDDYDVMQDPEFLQSVLENLPGVDPNNAAIRSVMGALASQATKDGKNDKKEEEKK
B4: Ddx3x (protein, UniProt Q62167 2-662, looked up)
ATP-dependent RNA helicase …: SHVAVENALGLDQQFAGLDLNSSDNQSGGSTASKGRYIPPHLRNREATKGFYDKDSSGWSSSKDKDAYSSFGSRGDSRGKSSFFGDRGSGSRGRFDDRGRGDYDGIGGRGDRSGFGKFERGGNSRWCDKSDEDDWSKPLPPSERLEQELFSGGNTGINFEKYDDIPVEATGNNCPPHIESFSDVEMGEIIMGNIELTRYTRPTPVQKHAIPIIKEKRDLMACAQTGSGKTAAFLLPILSQIYADGPGEALRAMKENGRYGRRKQYPISLVLAPTRELAVQIYEEARKFSYRSRVRPCVVYGGAEIGQQIRDLERGCHLLVATPGRLVDMMERGKIGLDFCKYLVLDEADRMLDMGFEPQIRRIVEQDTMPPKGVRHTMMFSATFPKEIQMLARDFLDEYIFLAVGRVGSTSENITQKVVWVEEIDKRSFLLDLLNATGKDSLTLVFVETKKGADSLEDFLYHEGYACTSIHGDRSQRDREEALHQFRSGKSPILVATAVAARGLDISNVKHVINFDLPSDIEEYVHRIGRTGRVGNLGLATSFFNERNINITKDLLDLLVEAKQEVPSWLENMAFEHHYKGSSRGRSKSSRFSGGFGARDYRQSSGASSSSFSSSRASSSRSGGGGHGGSRGFGGGGYGGFYNSDGYGGNYNSQGVDWWGN
B5: Eef1e1 (protein, UniProt Q9D1M4 2-174, looked up)
Eukaryotic translation …: AAAAELRLLEKSLGLKPGNKYSAQGERQIPVLQTNNGPSLMGLSTIATHLVKQASKEHLLGSTAEEKAMVQQWLEFRVTRVDGHSSKEDTQTLLKDLNSYLEDKVYLAGHNITLADILLYYGLHRFIVDLTVQEKEKYLNVSRWFCHIQHYPDIRQHLSSIVFIKNRLYANSH
B6: Eif4b (protein, UniProt Q8BGD9 1-611, looked up)
Eukaryotic translation …: MAASAKKKNKKGKTISLTDFLAEDGGTGGGSTYVPKPVSWADETDDLEGDVSTTWHSNDDDVYRAPPIDRSILPTAPRAAREPNIDRSRLPKSPPYTAFLGNLPYDVTEDSIKDFFRGLNISAVRLPREPSNPDRLKGFGYAEFEDLDSLLSALSLNEESLGNRRIRVDVADQAQDKDRDDRSFGRDRNRDSDKTDTDWRARPTTDSFDDYPPRRGDDSFGDKYRDRYDSDRYRDGYRDGYRDGPRRDMDRYGGRDRYDDRGSRDYDRGYDSRIGSGRRAFGSGYRRDDDYRGGGDRYEDRYDRRDDRSWSSRDDYSRDDYRRDDRGPPQRPRLNLKPRSAPKEDDASASTSQSSRAASIFGGAKPVDTAAREREVEERLQKEQEKLQRQLDEPKLDRRPRERHPSWRSEETQERERSRTGSESSQTGASATSGRNTRRRESEKSLENETLNKEEDCHSPTSKPPKPDQPLKVMPAPPPKENAWVKRSSNPPARSQSSDTEQPSPTSGGGKVAAVQPPEEGPSRKDGNKVDVVGATQGQAGSCSRGPGDGGSRDHWKDLDRKDGKKDQDSRSAPEPKKPEENPASKFSSASKYAALSVDGEDEDEGDDCTE
B7: Col6a1 (protein, UniProt Q04857 20-1025, looked up)
Collagen alpha-1(VI) chain: QDIQGSKAIAFQDCPVDLFFVLDTSESVALRLKPYGALVDKVKSFTKRFIDNLRDRYYRCDRNLVWNAGALHYSDEVEIIRGLTRMPSGRDELKASVDAVKYFGKGTYTDCAIKKGLEELLIGGSHLKENKYLIVVTDGHPLEGYKEPCGGLEDAVNEAKHLGIKVFSVAITPDHLEPRLSIIATDHTYRRNFTAADWGHSRDAEEVISQTIDTIVDMIKNNVEQVCCSFECQAARGPPGPRGDPGYEGERGKPGLPGEKGEAGDPGRPGDLGPVGYQGMKGEKGSRGEKGSRGPKGYKGEKGKRGIDGVDGMKGETGYPGLPGCKGSPGFDGIQGPPGPKGDAGAFGMKGEKGEAGADGEAGRPGNSGSPGDEGDPGEPGPPGEKGEAGDEGNAGPDGAPGERGGPGERGPRGTPGVRGPRGDPGEAGPQGDQGREGPVGIPGDSGEAGPIGPKGYRGDEGPPGPEGLRGAPGPVGPPGDPGLMGERGEDGPPGNGTEGFPGFPGYPGNRGPPGLNGTKGYPGLKGDEGEVGDPGEDNNDISPRGVKGAKGYRGPEGPQGPPGHVGPPGPDECEILDIIMKMCSCCECTCGPIDILFVLDSSESIGLQNFEIAKDFIIKVIDRLSKDELVKFEPGQSHAGVVQYSHNQMQEHVDMRSPNVRNAQDFKEAVKKLQWMAGGTFTGEALQYTRDRLLPPTQNNRIALVITDGRSDTQRDTTPLSVLCGADIQVVSVGIKDVFGFVAGSDQLNVISCQGLSQGRPGISLVKENYAELLDDGFLKNITAQICIDKKCPDYTCPITFSSPADITILLDSSASVGSHNFETTKVFAKRLAERFLSAGRADPSQDVRVAVVQYSGQGQQQPGRAALQFLQNYTVLASSVDSMDFINDATDVNDALSYVTRFYREASSGATKKRVLLFSDGNSQGATAEAIEKAVQEAQRAGIEIFVVVVGPQVNEPHIRVLVTGKTAEYDVAFGERHLFRVPNYQALLRGVLYQTVSRKVALG
B8: Cyb5r3 (protein, UniProt Q9DCN2 2-301, looked up)
NADH-cytochrome b5 reductase 3: GAQLSTLSHVVLSPVWFIYSLFMKLFQRSTPAITLENPDIKYPLRLIDKEVISPDTRRFRFALPSPQHILGLPIGQHIYLSTRIDGNLVIRPYTPVSSDDDKGFVDLVVKVYFKDTHPKFPAGGKMSQYLENMKIGDTIEFRGPNGLLVYQGKGKFAIRADKKSNPVVRTVKSVGMIAGGTGITPMLQVIRAVLKDPNDHTVCYLLFANQSEKDILLRPELEELRNEHSARFKLWYTVDKAPDAWDYSQGFVNEEMIRDHLPTPGEEPLILMCGPPPMIQFACLPNLERVGHPKERCFTF

What was measured:
DYT-TOR1A MEF EVs = test: Quantitative LC-MS/MS proteomics of EVs from drug-treated DYT-TOR1A MEF cultures (ritonavir, salubrinal); format: cell-based, mouse; design: key to RTV Corrective Direction / RTV Corrective Direction, Grwd1 / RTV Corrective Direction, Srrm2 / RTV Corrective Direction, Rbm17 / RTV Corrective Direction, Dcaf8 / RTV Corrective Direction, Edil3 / RTV Corrective Direction, Timp3 / RTV Corrective Direction, Heatr3 / RTV Corrective Direction, Brd4 / RTV Corrective Direction, P3h4 / RTV Corrective Direction, Pacsin3 / RTV Corrective Direction, Naa50 / RTV Corrective Direction, Lpar6 / RTV Corrective Direction, Ndrg1 / RTV Corrective Direction, Kntc1 / RTV Corrective Direction, Cdk11b / RTV Corrective Direction, Sumo1 / RTV Corrective Direction, Lsm4 / RTV Corrective Direction, Hmga2 / RTV Corrective Direction, Cstf1 / RTV Corrective Direction, Tes / RTV Corrective Direction, Sbno1 / RTV Corrective Direction, Unc119b / RTV Corrective Direction, Cfdp1 / RTV Corrective Direction, Sec61b: YES = protein abundance effect opposite to DYT/WT; settings: EV protein abundance; for RTV Corrective Direction: DYT + RTV (ritonavir) vs DYT, direction compared with DYT/WT; for DYT + RTV/DYT Cohen's d: ritonavir (RTV)-treated DYT vs DYT
WT MEF EVs = test: Quantitative LC-MS/MS proteomics of EVs from ISRIB-treated WT MEF cultures; format: cell-based, mouse; design: key to ISRIB and DYT Parallel Direction / ISRIB and DYT Parallel Direction, Ctdsp1 / ISRIB and DYT Parallel Direction, Pcdh19 / ISRIB and DYT Parallel Direction, Tspan7 / ISRIB and DYT Parallel Direction, Myo1e / ISRIB and DYT Parallel Direction, Plpp3 / ISRIB and DYT Parallel Direction, Sh3bp4 / ISRIB and DYT Parallel Direction, Dnajc7 / ISRIB and DYT Parallel Direction, Drg1 / ISRIB and DYT Parallel Direction, Maea: YES = protein abundance effect similar to DYT/WT; settings: EV protein abundance; for WT + ISRIB/WT Cohen's d: ISRIB-treated WT vs WT; for ISRIB and DYT Parallel Direction: WT + ISRIB vs WT, direction compared with DYT/WT

Molecule | RTV Corrective Direction (DYT-TOR1A MEF EVs) | DYT + RTV/DYT Cohen's d (DYT-TOR1A MEF EVs) | WT + ISRIB/WT Cohen's d (WT MEF EVs) | ISRIB and DYT Parallel Direction (WT MEF EVs)
B1 | YES | 1.82 | −0.96 | YES
B2 | YES | 2.12 | −0.28 | YES
B3 | YES | −0.60 | 0.71 | YES
B4 | YES | 2.24 | −1.08 | YES
B5 | YES | 16.90 | −3.65 | YES
B6 | YES | −1.72 | 3.88 | YES
B7 | YES | −1.96 | 0.14 | YES
B8 | YES | 0.64 | 0.64 | YES
